Reference: patent US7465582B1, “Nurr-1 induction of a dopaminergic neuronal fate in a neural stem cell or neural progenitor cell in vitro” (Neuro Therapeutics AB, priority 2000, dated 2008)

Key:
[1] = tested on: Nurr1 over-expressing C17.2 clones; assay: Treatment of Nurr1 clones with trophic factors, mitogens, cytokines and other agents; TH immunoreactivity; type: cell-based, mouse; conditions: Nurr1 clones without co-culture; factors alone or combined
Source text: C17.2 cells were cotransfected with a CMX-Nurr1 expression vector (Perlmann, T. et al. Genes Dev. 9, 769-782 (1995)) and PGK-puromycin resistance plasmids (Nurr1 clones) or a PGK-puromycin alone (mock clones). For reporter assays, C17.2 parental cells were transfected with the Nurr1 expression vector, the reporter plasmid (NGFIB-binding response element (NBRE) triplet upstream of TK minimal promoter fused to firefly luciferase) and a pRSV-alkaline phosphatase plasmid at a 2:1:2 ratio.
C17.2 neural stem cells (Snyder, E. Y. et al. Cell 68, 33-51 (1992)) were maintained and passaged as previously described (Snyder, E. Y. et al. Cell 68, 33-51 (1992)). Ventral mesencephala from E16 rat embryos were dissected, mechanically dissociated and plated at a final density of 1×10^5 cells/cm^2 on poly-D-lysine coated culture wells in a defined, serum-free medium (N^2, consisting of a 1:1 mixture of F12 and DMEM containing insulin (10 ng/ml), transferrin (100 μg/ml), putrescine (100 μM), progesterone (20 nM), selenium (30 nM) glucose (6 mg/ml), and bovine serum albumin (1 mg/ml)). After 24 hours in vitro, co-cultures were initiated by directly plating 2.5−5×10^4 C17.2-derived cells into the primary cultures; all ages of cultures given use this point as 0 DIV. […] Purified Type 1 astrocytes were obtained from mixed glial cultures derived from various regions of P1 rats according to a standard protocol (McCarthy, K. D. et al. J. Cell Biol. 85, 890-902 (1980)). After replating into 6- or 12-well plates, astrocytes were grown to confluency in serum-containing media and changed to N2 medium. After 3-5 DIV, co-cultures were initiated in fresh N2 as described above. All factors were added once, at the initiation of co-culture (concentrations are noted in the Results and Discussion), with the exception of 5-bromodeoxyuridine (BrdU), which was added 4-6 hours prior to fixation. […]
Fixed cultures were incubated with one of the following antibodies, diluted appropriately in phosphate-buffered saline (PBS) containing 1% bovine serum albumin and 0.3% Triton-X 100: mouse anti-BrdU, 1:50 (DAKO, Denmark), mouse anti-β-tubulin, Type III (TuJ1), 1:250 (Sigma), mouse anti-TH, 1:1000 (Incstar, USA), rabbit anti-β-galactosidase, 1:250 (Cappel, USA) rabbit anti-GFAP, 1:500 (DAKO, Denmark), rabbit anti-AHD-2, 1:4000. […] Quantitative immunocytochemical data represent means and standard errors from 100-500 cells counted in each of 3-6 separate wells from 2-4 experiments. For quantitation of TH expression in co-cultures of primary and C-17.2-derived cells, TH was visualized with the brightfield AEC substrate, while β-gal was assessed using FITC, thus all data expressed as “% TH+” represents the number of TH+/β-gal+divided by total β-gal positive cells.

[2] = tested on: Nurr1-c42-derived dopaminergic neurons; assay: Response of TH positive c42 cells in co-culture to neurotrophic factors; type: cell-based, mouse; conditions: 9 DIV, after SR11237 and bFGF induction; for neuritogenesis and/or hypertrophy: BDNF 30 ng/ml, CNTF 10 ng/ml, GDNF 10 ng/ml
Experimental: C17.2 neural stem cells (Snyder, E. Y. et al. Cell 68, 33-51 (1992)) were maintained and passaged as previously described (Snyder, E. Y. et al. Cell 68, 33-51 (1992)). Ventral mesencephala from E16 rat embryos were dissected, mechanically dissociated and plated at a final density of 1×10^5 cells/cm^2 on poly-D-lysine coated culture wells in a defined, serum-free medium (N^2, consisting of a 1:1 mixture of F12 and DMEM containing insulin (10 ng/ml), transferrin (100 μg/ml), putrescine (100 μM), progesterone (20 nM), selenium (30 nM) glucose (6 mg/ml), and bovine serum albumin (1 mg/ml)). After 24 hours in vitro, co-cultures were initiated by directly plating 2.5−5×10^4 C17.2-derived cells into the primary cultures; all ages of cultures given use this point as 0 DIV. […] Purified Type 1 astrocytes were obtained from mixed glial cultures derived from various regions of P1 rats according to a standard protocol (McCarthy, K. D. et al. J. Cell Biol. 85, 890-902 (1980)). After replating into 6- or 12-well plates, astrocytes were grown to confluency in serum-containing media and changed to N2 medium. After 3-5 DIV, co-cultures were initiated in fresh N2 as described above. All factors were added once, at the initiation of co-culture (concentrations are noted in the Results and Discussion), with the exception of 5-bromodeoxyuridine (BrdU), which was added 4-6 hours prior to fixation. Cultures were maintained in a humidified 5% CO2, 95% air incubator at 37 C and fixed after given time periods with 4% paraformaldehyde for 45 minutes for immunocytochemical analysis.
Fixed cultures were incubated with one of the following antibodies, diluted appropriately in phosphate-buffered saline (PBS) containing 1% bovine serum albumin and 0.3% Triton-X 100: mouse anti-BrdU, 1:50 (DAKO, Denmark), mouse anti-β-tubulin, Type III (TuJ1), 1:250 (Sigma), mouse anti-TH, 1:1000 (Incstar, USA), rabbit anti-β-galactosidase, 1:250 (Cappel, USA) rabbit anti-GFAP, 1:500 (DAKO, Denmark), rabbit anti-AHD-2, 1:4000. Incubations were either carried out at 4° C. overnight, or at room temperature for 1 hour. Both processes yielded similar results. After washing, cultures were incubated for 1-3 hr with appropriate secondary antibodies (biotinylated horse-anti-mouse IgG or goat-anti-rabbit IgG, Vector, USA), 1:100, in the same dilution buffer. […] Quantitative immunocytochemical data represent means and standard errors from 100-500 cells counted in each of 3-6 separate wells from 2-4 experiments. For quantitation of TH expression in co-cultures of primary and C-17.2-derived cells, TH was visualized with the brightfield AEC substrate, while β-gal was assessed using FITC, thus all data expressed as “% TH+” represents the number of TH+/β-gal+divided by total β-gal positive cells. […]

Row | Molecule | induction of TH expression [1] | number of TH+ cells in the culture ([2]; compared to N2 control, NT-3 30 ng/ml) | neuritogenesis and/or hypertrophy [2]
1 | NT-3: neurotrophin-3 (protein, UniProt P20783 139-257, looked up) Neurotrophin-3: YAEHKSHRGEYSVCDSESLWVTDKSSAIDIRGHQVTVLGEIKTGNSPVKQYFYETRCKEARPVKNGCRGIDDKHWNSQCKTSQTYVRALTSENNKLVGWRWIRIDTSCVCALSRKIGRT | None of these factors induced TH expression in any of the clones | dramatically increased the number of TH+ cells | –
2 | BDNF: Brain Derived Neurotrophic Factor (protein, UniProt P23560 19-247, looked up) Neurotrophic factor BDNF …: APMKEANIRGQGGLAYPGVRTHGTLESVNGPKAGSRGLTSLADTFEHVIEELLDEDQKVRPNEENNKDADLYTSRVMLSSQVPLEPPLLFLLEEYKNYLDAANMSMRVRRHSDPARRGELSVCDSISEWVTAADKKTAVDMSGGTVTVLEKVPVSKGQLKQYFYETKCNPMGYTKEGCRGIDKRHWNSQCRTTQSYVRALTMDSKKRIGWRFIRIDTSCVCTLTIKRGR | None of these factors induced TH expression in any of the clones | – | induced neuritogenesis and/or hypertrophy
3 | CNTF: Ciliary Neurotrophic Factor (protein, UniProt P26441 1-200, looked up) Ciliary neurotrophic factor: MAFTEHSPLTPHRRDLCSRSIWLARKIRSDLTALTESYVKHQGLNKNINLDSADGMPVASTDQWSELTEAERLQENLQAYRTFHVLLARLLEDQQVHFTPTEGDFHQAIHTLLLQVAAFAYQIEELMILLEYKIPRNEADGMPINVGDGGLFEKKLWGLKVLQELSQWTVRSIHDLRFISSHQTGIPARGSHYIANNKKM | None of these factors induced TH expression in any of the clones | – | induced neuritogenesis and/or hypertrophy
4 | GDNF: Glial cell line-Derived Neurotrophic Factor (protein, UniProt P39905 78-211, looked up) Glial cell line-derived …: SPDKQMAVLPRRERNRQAAAANPENSRGKGRRGQRGKNRGCVLTAIHLNVTDLGLGYETKEELIFRYCSGSCDAAETTYDKILKNLSRNRRLVSDKVGQACCRPIAFDDDLSFLDDNLVYHILRKHSAKRCGCI | None of these factors induced TH expression in any of the clones | – | induced neuritogenesis and/or hypertrophy
